According to paper PMC5413018, “Neuropeptide S (NPS) variants modify the signaling and risk effects of NPS Receptor 1 (NPSR1) variants in asthma” (PLoS ONE, 2017):

Assays:
NPSR1-Ile(107) [1] = biological target: T1, NPSR1-Ile(107) (Homo sapiens, UniProt Q6W5P4, N107I); assay: Real-time RT-PCR of downstream target genes in SH-SY5Y cells stably overexpressing NPSR1-Ile(107); type: cell-based; design: expressed in transfected cells; conditions: SH-SY5Y over-expressing NPSR1-Ile(107), 0.0001–1 μM, 3 h, dose dependent
T1 sequence (Q6W5P4 1-371 N107I): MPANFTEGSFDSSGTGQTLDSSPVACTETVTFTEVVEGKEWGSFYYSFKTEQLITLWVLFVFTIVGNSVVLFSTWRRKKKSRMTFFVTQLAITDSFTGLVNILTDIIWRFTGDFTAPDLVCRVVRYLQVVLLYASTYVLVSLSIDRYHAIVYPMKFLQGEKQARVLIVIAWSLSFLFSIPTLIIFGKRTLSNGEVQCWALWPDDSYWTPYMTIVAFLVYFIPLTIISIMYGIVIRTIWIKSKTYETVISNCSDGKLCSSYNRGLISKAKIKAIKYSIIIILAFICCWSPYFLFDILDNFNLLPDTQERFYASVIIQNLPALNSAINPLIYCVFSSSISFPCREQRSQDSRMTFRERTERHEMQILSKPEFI
Protocol: Fig 2 Real time RT-PCR analysis of NPSR1 downstream target genes. (A) Time-dependent mRNA expression of NR4A1, FOS, CXCL2, and CCL20 in human embryonic kidney epithelial (HEK293) cells transiently transfected with either NPSR1-Ile(107) or NPSR1-Asn(107) coding variants and stimulated with either NPS-Val(6) or NPS-Leu(6) NPS (100 nM) for 1, 3, 6, and 24 h. (B) Dose-response curves of NR4A1, FOS, IER3, and EGR1 in human SH-SY5Y stable cell line over-expressing NPSR1-Ile(107) stimulated with either NPS-Leu(6) or NPS V6 (0.0001–1 μM) for 3 h. The results are presented as fold-changes in comparison to the unstimulated cells. GAPDH was used as the endogenous reference, and data are expressed as mean of triplicate samples. […] In all experiments, results were calculated with the comparative Ct method.
Altered neuroinflammatory mechanisms have been implicated in allergic airway inflammation. […] SH-SY5Y cells stably overexpressing NPSR1-Ile(107) were stimulated with either NPS-Leu(6) or NPS-Val(6) (0.0001–1 μM) for 3 h and the mRNA expression of known downstream target genes in these cells was detected using RT-PCR. […] These observations validated the results detected in HEK293 cells in an independent cell line.
The stable NPSR1-A-GFP expressing SH-SY5Y cells were engineered and cultured as described before. […] The changes in gene expression were analyzed with real-time PCR (RT-PCR). […]

NPSR1-Ile(107) [2] = conditions: cell models; cited from earlier work
Text: The functional NPSR1 SNP rs324981 (A>T), encoding a substitution of Asn(107)Ile in the putative ligand-binding pocket of NPSR1 [5], has shown associations with neuropsychiatric phenotypes, such as panic disorders, psychological stress, and fear responses. […] In cell models, the change of Asn(107) to Ile(107) results in 10-fold increase in NPS-mediated intracellular sign ... || A key strength of this study is the use of robust in vitro cell assays that allowed us to dissect the functional effects of coding NPS/NPSR1 variants on receptor signaling and downstream gene expression. Our cell assays confirmed that stimulation of cells transfected with either NPSR1-Asn(107) or NPSR-Ile(107) with the wildtype NPS-Val(6), induced CRE activity as described previously.

With “Neuropeptide S (SFRNGVGTGMKKTSFQRAKS; Neuropeptide S; UniProt P0C0P6 70-89, looked up) [NPS, Neuropeptide S, variant not specified at the place]” as the substance, how does the “mRNA expression of NR4A1, FOS, EGR1 and IER3 (in words)” value (NPSR1-Ile(107) [1]) read?
Its value is “increased”.

And the “increase in NPS-mediated intracellular signaling on change of Asn(107) to Ile(107)” value (NPSR1-Ile(107) [2])?
Its value is 10 fold.
